To fix the notation:
T1: Recombinant Human IL-17 (human, UniProt Q16552 20-155, limits assumed)
T1 construct: bought reagent
T1 sequence (looked up): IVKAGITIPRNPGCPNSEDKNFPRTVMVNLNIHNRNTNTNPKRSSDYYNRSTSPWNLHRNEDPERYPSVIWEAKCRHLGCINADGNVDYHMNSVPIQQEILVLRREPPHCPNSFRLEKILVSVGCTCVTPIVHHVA

B1: DVD1593 (bispecific antibody, human IgG1, kappa)
heavy: not shown
light: DTQVTQSPSSLSASVGDRVTITCITSTDIDVDMNWYQQKPGKPPKLLISQGNTLRPGVPSRFSSSGSGTDFTFTISSLQPEDFATYYCLQSDNLPLTFGQGTKLEIKRTVAAPSVFIFPPDIQMTQSPSSLSASVGDRVTITCRASSGIISYIDWFQQKPGKAPKRLIYATFDLASGVPSRFSGSGSGTDYTLTISSLQPEDFATYYCRQVGSYPETFGQGTKLEIKRTVAAPSVFIFPPSDEQLKSGTASVVCLLNNFYPREAKVQWKVDNALQSGNSQESVTEQDSKDSTYSLSSTLTLSKADYEKHKVYACEVTHQGLSSPVTKSFNRGEC
notes: DVD-Ig, outer AB270, inner AB273, linker set 2; V1 wt hIgG1, V2 kappa; also called DVD1593H; DVD1593L
B2: DVD1591 (bispecific antibody, human IgG1, kappa)
heavy: not shown
light: DIQMTQSPSSLSASVGDRVTITCRASGNIHNYLTWYQQTPGKAPKLLIYNAKTLADGVPSRFSGSGSGTDYTFTISSLQPEDIATYYCQHFWSIPYTFGQGTKLQITRTVAAPSVFIFPPDIQMTQSPSSLSASVGDRVTITCRASSGIISYIDWFQQKPGKAPKRLIYATFDLASGVPSRFSGSGSGTDYTLTISSLQPEDFATYYCRQVGSYPETFGQGTKLEIKRTVAAPSVFIFPPSDEQLKSGTASVVCLLNNFYPREAKVQWKVDNALQSGNSQESVTEQDSKDSTYSLSSTLTLSKADYEKHKVYACEVTHQGLSSPVTKSFNRGEC
notes: V1 wt hIgG1, V2 kappa; also called DVD1591H; DVD1591L
B3: DVD1262 (bispecific antibody, human IgG1, kappa)
heavy: not shown
light: DIQMTQSPSSLSASVGDRVTITCRASGNIHNYLTWYQQTPGKAPKLLIYNAKTLADGVPSRFSGSGSGTDYTFTISSLQPEDIATYYCQHFWSIPYTFGQGTKLQITRTVAAPDIQMTQSPSSLSASVGDRVTITCRASSGIISYIDWFQQKPGKAPKRLIYATFDLASGVPSRFSGSGSGTDYTLTISSLQPEDFATYYCRQVGSYPETFGQGTKLEIKRTVAAPSVFIFPPSDEQLKSGTASVVCLLNNFYPREAKVQWKVDNALQSGNSQESVTEQDSKDSTYSLSSTLTLSKADYEKHKVYACEVTHQGLSSPVTKSFNRGEC
notes: V1 wt hIgG1, V2 kappa; also called DVD1262H; DVD1262L
B4: DVD1264 (bispecific antibody, human IgG1, kappa)
heavy: not shown
light: B3 light
notes: V1 wt hIgG1, V2 kappa; also called DVD1264H; DVD1264L
B5: DVD1268 (bispecific antibody, human IgG1, kappa)
heavy: not shown
light: DTVVTQSPAFLSVTPGEKVTITCITSTDIDVDMNWYQQKPDQPPKLLISQGNTLRPGVPSRFSSSGSGTDFTFTISSLEAEDAATYYCLQSDNLPLTFGQGTKLEIKRTVAAPDIQMTQSPSSLSASVGDRVTITCRASSGIISYIDWFQQKPGKAPKRLIYATFDLASGVPSRFSGSGSGTDYTLTISSLQPEDFATYYCRQVGSYPETFGQGTKLEIKRTVAAPSVFIFPPSDEQLKSGTASVVCLLNNFYPREAKVQWKVDNALQSGNSQESVTEQDSKDSTYSLSSTLTLSKADYEKHKVYACEVTHQGLSSPVTKSFNRGEC
notes: DVD-Ig, outer AB271, inner AB273, linker set 1; V1 wt hIgG1, V2 kappa; also called DVD1268H; DVD1268L

The target in one assay is T1, Recombinant Human IL-17. Description: Biacore SPR; C-terminal VD. Summed up:
(§1)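 SPR, 25° C, HBS-EP (10 mM HEPES pH 7.4, 150 mM NaCl, 3 mM EDTA, 0.005% P20). Capture via anti-mouse IgG Fcγ chip; analyte 10−200 nM at 25 μl/min. 1:1 Langmuir global fit; KD = koff/kon.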
(SPR reads the build-up and loss of mass on a sensor chip optically.)
Usually Kd stands for the constant that tells how readily two partners part at equilibrium. Broadly, the koff is the first-order rate constant of dissociation. A word on the kon: it is the second-order rate constant of association. As to B1, the Kd is 0.027 nM, the koff amounted to 9.2e-06 s⁻¹ and the kon came to 340000 M⁻¹ s⁻¹.

Take B2: the Kd was < 0.0032 nM, the koff was < 1e-06 s⁻¹ and the kon stood at 310000 M⁻¹ s⁻¹.

Take B3: the Kd came out at 12 nM, the koff was found to be 0.0001 s⁻¹ and the kon stood at 8500 M⁻¹ s⁻¹.

With B4, the Kd stood at 0.3 nM, the koff was found to be 1.1e-05 s⁻¹ and the kon is 37000 M⁻¹ s⁻¹.

As to B5, the Kd was < 0.02 nM, the koff was < 1e-06 s⁻¹ and the kon amounted to 51000 M⁻¹ s⁻¹.

A further assay concerns the target T2, Recombinant Human IL-1β (human, UniProt P01584 117-269).
T2 construct: bought reagent; also called IL-1B
Briefly: Biacore SPR; N-terminal VD. Summed up:
as §1
Take B1: the Kd was determined as 0.064 nM, the koff was found to be 0.00047 s⁻¹ and the kon is 7.4e+06 M⁻¹ s⁻¹.

As to B2, the Kd amounted to 0.032 nM, the koff was 3.1e-05 s⁻¹ and the kon stood at 960000 M⁻¹ s⁻¹.

As to B3, the Kd was determined as 0.033 nM, the koff stood at 4.8e-05 s⁻¹ and the kon came to 1.4e+06 M⁻¹ s⁻¹.

Turning to B4, the Kd is 0.024 nM, the koff was 2.2e-05 s⁻¹ and the kon was 940000 M⁻¹ s⁻¹.

Regarding B5, the Kd was determined as 0.067 nM, the koff was 0.00057 s⁻¹ and the kon was determined as 8.5e+06 M⁻¹ s⁻¹.

Values taken from patent publication US20120034160A1 (AbbVie / Abbott, published 2012).
